Experimental data: publication doi:10.1101/2024.05.15.594416 (bioRxiv, 2024)

Assays:
[1] = target: T1, soluble CD14 Surface II mutant (R90E/R92E/R117E) (human, UniProt P08571 20-367, R90E | R92E | R117E); assay: BLI
T1 sequence (looked up): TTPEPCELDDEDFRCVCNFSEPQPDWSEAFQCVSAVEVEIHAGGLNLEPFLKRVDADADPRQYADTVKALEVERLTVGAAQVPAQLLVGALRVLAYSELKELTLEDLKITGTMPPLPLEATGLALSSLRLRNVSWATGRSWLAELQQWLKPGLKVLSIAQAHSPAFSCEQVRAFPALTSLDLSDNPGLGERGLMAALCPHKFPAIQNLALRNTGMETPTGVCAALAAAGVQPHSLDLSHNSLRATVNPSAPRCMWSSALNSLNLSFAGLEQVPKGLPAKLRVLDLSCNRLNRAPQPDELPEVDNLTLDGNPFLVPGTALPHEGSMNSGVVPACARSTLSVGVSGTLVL

[2] = target: T2, soluble CD14 (sCD14), wildtype (human, UniProt P08571 20-367); assay: BLI
T2 sequence (looked up): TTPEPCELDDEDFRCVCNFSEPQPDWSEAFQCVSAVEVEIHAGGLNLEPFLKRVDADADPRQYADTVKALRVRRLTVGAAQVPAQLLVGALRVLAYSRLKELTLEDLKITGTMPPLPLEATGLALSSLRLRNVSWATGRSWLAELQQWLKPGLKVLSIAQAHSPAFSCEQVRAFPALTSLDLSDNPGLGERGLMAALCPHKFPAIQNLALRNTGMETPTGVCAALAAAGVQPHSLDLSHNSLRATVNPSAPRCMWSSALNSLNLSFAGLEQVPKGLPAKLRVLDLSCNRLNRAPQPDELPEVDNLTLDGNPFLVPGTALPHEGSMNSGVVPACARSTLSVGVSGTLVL

B1: S100A9/C3S/P114C, biotinylated (natural protein, human)
chain: TSKMSQLERNIETIINTFHQYSVKLGHPDTLNQGEFKELVRKDLQNFLKKENKNEKVIEHIMEDLDTNADKQLSFEEFIMLMARLTWASHEKMHEGDEGPGHHHKPGLGEGTC
modifications: biotin (EZ-link BMCC kit; biotinylation confirmed by MALDI-TOF)
- Kd [1]: 10 µM
- Kd [2]: 3.9 µM
